B1: Ankyrin-2, residues 3571 to 3650; numbered along this chain, Q01484 (parent)
chain: ERLAYIADHLGFSWTELARELDFTEEQIHQIRIENPNSLQDQSHALLKYWLERDGKHATDTNLVECLTKINRMDIVHLME

± gives the uncertainty stated by the source.

The variants in the series derive from B1. The series is described as follows: abundance fitness (aPCA) (normalised: wild type 0, dead -1); higher = more abundant; growth selection in yeast, the domain comes from the species named. As to conditions: Homo sapiens.
Take ERLAYIADHLGFSWTELARELDFTEEQIHQIRIENPNSLQDQSHALLKYWLERDGKHATDTNLVECLTKINRRDIVHLME [M73R]: the abundance fitness came out at 0.018 ± 0.35.

With ERLAYIADHLGFSWTELARELDFTEEQIHQIRIENPNSLQDQSHALLKYWLERDGKHATDTNLVECLTKINRVDIVHLME [M73V], the abundance fitness was 0.035 ± 0.15.

For ERLAYIADHLGFSWTELARELDFTEEQIHQIRIENPNSLQDQSHALLCYWLERDGKHATDTNLVECLTKINRMDIVHLME [K48C], the abundance fitness amounted to 0.054 ± 0.14.

With ERLAYIADHPGFSWTELARELDFTEEQIHQIRIENPNSLQDQSHALLKYWLERDGKHATDTNLVECLTKINRMDIVHLME [L10P], the abundance fitness is -0.819 ± 0.11.

As to ERLAYIADHLGFSLTELARELDFTEEQIHQIRIENPNSLQDQSHALLKYWLERDGKHATDTNLVECLTKINRMDIVHLME [W14L], the abundance fitness was -0.268 ± 0.077.

Consider ERLAYIADHLGFSWTESARELDFTEEQIHQIRIENPNSLQDQSHALLKYWLERDGKHATDTNLVECLTKINRMDIVHLME [L17S], for which the abundance fitness is -1.03 ± 0.12.

Turning to ERLAYIADHLGWSWTELARELDFTEEQIHQIRIENPNSLQDQSHALLKYWLERDGKHATDTNLVECLTKINRMDIVHLME [F12W], the abundance fitness turned out to be 0.005 ± 0.092.

As to ERLAYIADHLGKSWTELARELDFTEEQIHQIRIENPNSLQDQSHALLKYWLERDGKHATDTNLVECLTKINRMDIVHLME [F12K], the abundance fitness was -0.143 ± 0.14.

With ERLAYIADHLGFSWTELARELDFTEEQIHQIRHENPNSLQDQSHALLKYWLERDGKHATDTNLVECLTKINRMDIVHLME [I33H], the abundance fitness is -0.096 ± 0.17.

As to ERLAYIADHLGFSWTELARELDFTEEQIHQIRIENPNSLQDQSSALLKYWLERDGKHATDTNLVECLTKINRMDIVHLME [H44S], the abundance fitness is 0.016 ± 0.22.

ERLAYIADHLGFSWTELARELDFTEEQIHQIRIENPSSLQDQSHALLKYWLERDGKHATDTNLVECLTKINRMDIVHLME [N37S]: the abundance fitness was -0.031 ± 0.053.

For ERLAYIADHLGFSWTELARELDFTEEQIHQIRIENPNSLQDQSHALLKYWLERDGKDATDTNLVECLTKINRMDIVHLME [H57D], the abundance fitness was -0.061 ± 0.11.

Regarding ERLAYIADHLGFSWTELARELDFTEEQYHQIRIENPNSLQDQSHALLKYWLERDGKHATDTNLVECLTKINRMDIVHLME [I28Y], the abundance fitness was -0.225 ± 0.12.

As for ERLAYIADHLGFSWTELARELDFTEEQSHQIRIENPNSLQDQSHALLKYWLERDGKHATDTNLVECLTKINRMDIVHLME [I28S], the abundance fitness was -0.203 ± 0.073.

ERNAYIADHLGFSWTELARELDFTEEQIHQIRIENPNSLQDQSHALLKYWLERDGKHATDTNLVECLTKINRMDIVHLME [L3N]: the abundance fitness is -0.074 ± 0.26.

Take ERLAYIADHLGFSWTMLARELDFTEEQIHQIRIENPNSLQDQSHALLKYWLERDGKHATDTNLVECLTKINRMDIVHLME [E16M]: the abundance fitness is -0.056 ± 0.11.

For ERLAYIADHLGFSWTLLARELDFTEEQIHQIRIENPNSLQDQSHALLKYWLERDGKHATDTNLVECLTKINRMDIVHLME [E16L], the abundance fitness stood at 0.032 ± 0.07.

With ERLAYIADHLGFSWTELARELDFTEEQIHQIRIENPNSLQDQSHALLKYWLERDGKHASDTNLVECLTKINRMDIVHLME [T59S], the abundance fitness turned out to be 0.036 ± 0.046.

ERLAYIADHLGFSWTELARELDFTEEQIHQIRIENPNSLQDQSHALLKYWLERDGKHATDTNLVECLTKIKRMDIVHLME [N71K]: the abundance fitness was -0.078 ± 0.12.

With ERLAYIADHLGFSWTELARELDFTEEQIHQIRIENPNSLQDQSHALLKYWLERDGKHATDTNLVECLTKIMRMDIVHLME [N71M], the abundance fitness was -0.167 ± 0.096.

As to ERLAYIADHLGFSWTELAREFDFTEEQIHQIRIENPNSLQDQSHALLKYWLERDGKHATDTNLVECLTKINRMDIVHLME [L21F], the abundance fitness was 0.069 ± 0.17.

Consider ERLAYIADHLGFSWTELARELDFTEEQIHQIRIENPNSLQDQSHALLKYWLERDGCHATDTNLVECLTKINRMDIVHLME [K56C], for which the abundance fitness came to 0.067 ± 0.097.

In the case of ERLAYIADHLGFSWTELARELDFTEEQIHQIRIENPNSLQDQSHALLKYWLERDGKHATDTNQVECLTKINRMDIVHLME [L63Q], the abundance fitness was -0.885 ± 0.2.

For ERLAYIADHLGFSWTELARELDFTEEQIHQIRIENPNSLQDQSHALLKYWLERDGKHATDTNLVECLTAINRMDIVHLME [K69A], the abundance fitness was determined as 0.001 ± 0.041.

As for ERLAYIADHLGFSWTELARELDFTEEQIHQIRIENPNSLQDQSHALLKYWLERDGKHATDTNLVECLTKINRMDILHLME [V76L], the abundance fitness is -0.081 ± 0.091.

For ERLAYIADHLGFSWTELARELDFTEEQIHQIRIENPNSLQDQSHALLKYWLERDGKHATDTWLVECLTKINRMDIVHLME [N62W], the abundance fitness was determined as 0.012 ± 0.12.

Regarding ERLAYIADHLGFSWTELPRELDFTEEQIHQIRIENPNSLQDQSHALLKYWLERDGKHATDTNLVECLTKINRMDIVHLME [A18P], the abundance fitness is -1.17 ± 0.22.

On to ERLAYIADHLGFSWTELARELDFTLEQIHQIRIENPNSLQDQSHALLKYWLERDGKHATDTNLVECLTKINRMDIVHLME [E25L], for which the abundance fitness is -0.062 ± 0.057.

Regarding ERLAYIADHLGFSWTELARELDFTEEQIHQIRIENPNSLQDQSHALLKYWLERDHKHATDTNLVECLTKINRMDIVHLME [G55H], the abundance fitness is -0.041 ± 0.072.

In the case of ERLAYIAGHLGFSWTELARELDFTEEQIHQIRIENPNSLQDQSHALLKYWLERDGKHATDTNLVECLTKINRMDIVHLME [D8G], the abundance fitness was -0.116 ± 0.12.

Take ERLAYIADHLGFSWTELARELDFTEEQIHQIRIENPNSLQDQSHALLKYWLEVDGKHATDTNLVECLTKINRMDIVHLME [R53V]: the abundance fitness was -0.067 ± 0.07.

As for ERLAYIADHLGFSWTELARELDFTEEQIHQIRIENPNILQDQSHALLKYWLERDGKHATDTNLVECLTKINRMDIVHLME [S38I], the abundance fitness is -0.396 ± 0.18.

Turning to ERLAYIADHLGFSWTELARELDFTEEQIHQIRIENPNSLQDQSHALLKCWLERDGKHATDTNLVECLTKINRMDIVHLME [Y49C], the abundance fitness worked out at 0.037 ± 0.11.

Consider ERLAYIADHLGFSWTELARELDFTEEQIHQIRIENPNSLQDQSHALLKYWLERDGKHATDTNLVECLTKMNRMDIVHLME [I70M], for which the abundance fitness is -0.002 ± 0.16.

For ERLAYIADHLGFSWTELARELDFTEWQIHQIRIENPNSLQDQSHALLKYWLERDGKHATDTNLVECLTKINRMDIVHLME [E26W], the abundance fitness is -0.105 ± 0.069.

These data come from the Human Domainome abundance scans (Beltran et al. 2025).
